{
  "source": "paper PMC4323031",
  "about": "(Malaria Journal, 2015)",
  "target": "T1, mE-ERH, fusion protein comprising the EGF-like domains of MSP1-19, MSP8 and MSP4 (Plasmodium falciparum, 3D7 assumed from …, UniProt Q7KWJ2)",
  "T1 construct": "source: Nicotiana benthamiana leaves (agroinfiltration, ER-retained), purified",
  "assay": "SPR",
  "details": "both partners purified",
  "data": [
    {"binder": "recombinant 2.44IgG1 (chimeric mouse-human IgG1:kappa1 mAb) (antibody, V domains shown, also called recombinant mAb; recombinant antibody) VH: DVQLQESGPGLVKPSQSLSLTCTVTGYSITSDFAWNWIRQFPGNRLEWMGYMGYTGSTSYNPSLRGRISITRDTSKNQFFLQLNSVTTEDTATYYCARGDYYGSRGYFDVWGAGTTVTVSS VL: EIVLTQSPALMAASPGEKVTITCSVSSSIRSSNLHWYQQKSDTSPKPWIYGTSNLASGVPVRFSGSGSGTSYSLTISTMEAEDAATYYCQQWSSYPFTFGSGTKLEIK", "values": [
      {"measurement": "Kd", "result": 0.0102, "unit": "µM"},
      {"measurement": "koff", "result": 0.000926, "unit": "s⁻¹"},
      {"measurement": "kon", "result": 90400, "unit": "M⁻¹ s⁻¹"}
    ]}
  ]
}
